Patent US20210246204A1 (Alector, published 2021)
Numbering of substitutions follows the chain as printed. Each block holds one binder with its values, some of them ahead of it.

Columns and labels:
[1] = target: T1, histidine-tagged human Siglec-7 (NovoProtein) (human, UniProt Q9Y286 19-353); assay: BLI, antibody captured
T1 construct: Bought protein; also called recombinant human Siglec-7; recombinant Siglec-7; not shown: histidine tag
Method: In this assay, the humanized antibodies were compared directly to S7AB. Briefly, the antibodies were captured on anti-human or anti-mouse IgG Fc Biosensors (Pall ForteBio). Varying concentrations (0-100 nM) of histidine-tagged human Siglec-7 (NovoProtein) were then bound to the captured anti-Siglec-7 surface (200 s association time, 900 s dissociation time). Multi-concentration kinetic analysis was performed using a 1:1 interaction model to extract association and dissociation rate constants (kₐ and kd, respectively) for each antibody. Apparent affinity constants (KD) were calculated from the ratio kd/kₐ.
The affinities of S7AB-H8 and variants S7AB-H8.1 through S7AB-H8.45 for human Siglec-7 were measured by BioLayer Interferometry according to the method described in Example 1 above.

[2] = target: human Siglec-7 on primary human monocyte-derived dendritic cells (human, UniProt Q9Y286 19-467); assay: cell-based or functional assay
Chain of human Siglec-7 on primary human monocyte-derived dendritic cells (Q9Y286 19-467): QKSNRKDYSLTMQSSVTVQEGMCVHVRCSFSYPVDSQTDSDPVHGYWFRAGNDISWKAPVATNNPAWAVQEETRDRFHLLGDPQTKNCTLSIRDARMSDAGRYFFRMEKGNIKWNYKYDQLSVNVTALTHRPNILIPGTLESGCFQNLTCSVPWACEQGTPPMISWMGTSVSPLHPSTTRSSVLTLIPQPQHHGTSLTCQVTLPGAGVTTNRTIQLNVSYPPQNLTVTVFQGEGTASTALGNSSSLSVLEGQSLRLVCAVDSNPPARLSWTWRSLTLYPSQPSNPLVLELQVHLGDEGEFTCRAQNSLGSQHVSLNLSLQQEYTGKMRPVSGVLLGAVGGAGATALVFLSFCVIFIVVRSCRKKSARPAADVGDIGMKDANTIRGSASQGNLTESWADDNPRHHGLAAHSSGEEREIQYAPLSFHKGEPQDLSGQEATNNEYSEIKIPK

T1 sequence (Q9Y286 19-353 limits assumed): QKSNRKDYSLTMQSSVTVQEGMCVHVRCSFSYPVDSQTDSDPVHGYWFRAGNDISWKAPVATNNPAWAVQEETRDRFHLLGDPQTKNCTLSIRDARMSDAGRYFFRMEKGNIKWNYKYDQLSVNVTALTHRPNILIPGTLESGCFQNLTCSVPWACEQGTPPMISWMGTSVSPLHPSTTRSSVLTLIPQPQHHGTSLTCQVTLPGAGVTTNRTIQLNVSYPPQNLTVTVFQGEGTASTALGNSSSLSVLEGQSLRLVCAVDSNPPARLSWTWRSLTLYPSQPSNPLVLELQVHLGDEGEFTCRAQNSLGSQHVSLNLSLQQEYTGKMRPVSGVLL

- Kd [1]: 54.1 nM
- fold improvement over S7AB-H8 [1]: 0.02 fold
- koff [1]: 0.000176 s⁻¹
- kon [1]: 3260 M⁻¹ s⁻¹
- Fold increase in potency compared to AB-H8 [2]: 0.2 fold
- Fold increase in potency compared to Chimeric Ab [2]: 0.5 fold
- Maximal downregulation (% Siglec-7 remaining) [2]: 45.7%
- Receptor downregulation, (EC50) (pM) [2]: 1950 pM
B1: S7AB-H8.14 (antibody, V domains shown)
VH: QVQLVQSGAEVKKPGASVKVSCKASGYAFTAAWMNWVRQAPGQGLEWIGRIFPGLGHTNYAQKFQGRATLTEDTSTSTAYMELSSLRSEDTAVYYCARDYSDYYFDYWGQGTLVTVSS
VL: DIQMTQSPSSLSASVGDRVTITCRGSQDINTYLNWYQQKPGKAPKLLIYYTSRLHSGVPSRFSGSGSGTDYTLTISSLQPEDFATYYCQGGNTLPWTFGQGTKLEIK

- Kd [1]: 0.0368 nM
- fold improvement over S7AB-H8 [1]: 28.5 fold
- koff [1]: 4.81e-06 s⁻¹
- kon [1]: 131000 M⁻¹ s⁻¹
- Fold increase in potency compared to AB-H8 [2]: 2.6 fold
- Fold increase in potency compared to Chimeric Ab [2]: 8 fold
- Maximal downregulation (% Siglec-7 remaining) [2]: 4.3%
- Receptor downregulation, (EC50) (pM) [2]: 129 pM
B2: S7AB-H8.24 (antibody, V domains shown)
VH: B1 VH
VL: B1 VL with G25A, Q27E, G90Q, N92G

- Kd [1]: 0.263 nM
- fold improvement over S7AB-H8 [1]: 4 fold
- koff [1]: 4e-05 s⁻¹
- kon [1]: 152000 M⁻¹ s⁻¹
- Fold increase in potency compared to AB-H8 [2]: 6.7 fold
- Fold increase in potency compared to Chimeric Ab [2]: 20 fold
- Maximal downregulation (% Siglec-7 remaining) [2]: 3.7%
- Receptor downregulation, (EC50) (pM) [2]: 51.1 pM
B3: S7AB-H8.29 (antibody, V domains shown)
VH: B1 VH
VL: B1 VL with G25A, I29A, G90Q, T93L

- Kd [1]: 0.395 nM
- fold improvement over S7AB-H8 [1]: 2.7 fold
- koff [1]: 4.13e-05 s⁻¹
- kon [1]: 105000 M⁻¹ s⁻¹
- Fold increase in potency compared to AB-H8 [2]: 2.7 fold
- Fold increase in potency compared to Chimeric Ab [2]: 8.2 fold
- Maximal downregulation (% Siglec-7 remaining) [2]: 8.2%
- Receptor downregulation, (EC50) (pM) [2]: 126 pM
B4: S7AB-H8.30 (antibody, V domains shown)
VH: B1 VH with A31E, L55Y
VL: B1 VL with G25A, I29A, G90Q, T93L

- Kd [1]: 0.742 nM
- fold improvement over S7AB-H8 [1]: 1.4 fold
- koff [1]: 0.000107 s⁻¹
- kon [1]: 145000 M⁻¹ s⁻¹
- Fold increase in potency compared to AB-H8 [2]: 2.4 fold
- Fold increase in potency compared to Chimeric Ab [2]: 7.2 fold
- Maximal downregulation (% Siglec-7 remaining) [2]: 10.5%
- Receptor downregulation, (EC50) (pM) [2]: 143 pM
B5: S7AB-H8.31 (antibody, V domains shown)
VH: B1 VH with A31E, A32T
VL: B1 VL with G90Q, N92G

- Kd [1]: 0.936 nM
- fold improvement over S7AB-H8 [1]: 1.1 fold
- koff [1]: 0.000125 s⁻¹
- kon [1]: 133000 M⁻¹ s⁻¹
- Fold increase in potency compared to AB-H8 [2]: 2.2 fold
- Fold increase in potency compared to Chimeric Ab [2]: 6.8 fold
- Maximal downregulation (% Siglec-7 remaining) [2]: 13.6%
- Receptor downregulation, (EC50) (pM) [2]: 152 pM
B6: S7AB-H8.21 (antibody, V domains shown)
VH: B1 VH with A31E, A32T
VL: B1 VL with G25A, Q27E, G90Q, N92G

- Kd [1]: 0.814 nM
- fold improvement over S7AB-H8 [1]: 1.3 fold
- koff [1]: 0.000104 s⁻¹
- kon [1]: 128000 M⁻¹ s⁻¹
- Fold increase in potency compared to AB-H8 [2]: 2.9 fold
- Fold increase in potency compared to Chimeric Ab [2]: 8.8 fold
- Maximal downregulation (% Siglec-7 remaining) [2]: 8%
- Receptor downregulation, (EC50) (pM) [2]: 116 pM
B7: S7AB-H8.17 (antibody, V domains shown)
VH: B1 VH with A31M, L55Y
VL: B1 VL with I29T, G90Q

- Kd [1]: 0.265 nM
- fold improvement over S7AB-H8 [1]: 4 fold
- koff [1]: 2.77e-05 s⁻¹
- kon [1]: 104000 M⁻¹ s⁻¹
- Fold increase in potency compared to AB-H8 [2]: 1.8 fold
- Fold increase in potency compared to Chimeric Ab [2]: 5.4 fold
- Maximal downregulation (% Siglec-7 remaining) [2]: 9.2%
- Receptor downregulation, (EC50) (pM) [2]: 189 pM
B8: S7AB-H8.25 (antibody, V domains shown)
VH: B1 VH with A31E, L55Y
VL: B1 VL with G25A, Q27E, G90Q, N92G

- Kd [1]: < 0.001 nM
- fold improvement over S7AB-H8 [1]: > 1000 fold
- koff [1]: < 1e-07 s⁻¹
- kon [1]: 135000 M⁻¹ s⁻¹
- Fold increase in potency compared to AB-H8 [2]: 3.1 fold
- Fold increase in potency compared to Chimeric Ab [2]: 9.4 fold
- Maximal downregulation (% Siglec-7 remaining) [2]: 3.9%
- Receptor downregulation, (EC50) (pM) [2]: 109 pM
B9: S7AB-H8.22 (antibody, V domains shown)
VH: B1 VH with A31M, L55Y
VL: B1 VL with G25A, Q27E, G90Q, N92G

- Kd [1]: 0.326 nM
- fold improvement over S7AB-H8 [1]: 3.2 fold
- koff [1]: 7.64e-05 s⁻¹
- kon [1]: 235000 M⁻¹ s⁻¹
- Fold increase in potency compared to AB-H8 [2]: 5.2 fold
- Fold increase in potency compared to Chimeric Ab [2]: 15.7 fold
- Maximal downregulation (% Siglec-7 remaining) [2]: 17.2%
- Receptor downregulation, (EC50) (pM) [2]: 65.3 pM
B10: S7AB-H8.33 (antibody, V domains shown)
VH: B1 VH with A31G, A32Y
VL: B1 VL with G90Q, N92G

- Kd [1]: 0.159 nM
- fold improvement over S7AB-H8 [1]: 6.6 fold
- koff [1]: 3.51e-05 s⁻¹
- kon [1]: 221000 M⁻¹ s⁻¹
- Fold increase in potency compared to AB-H8 [2]: 4.6 fold
- Fold increase in potency compared to Chimeric Ab [2]: 13.7 fold
- Maximal downregulation (% Siglec-7 remaining) [2]: 17%
- Receptor downregulation, (EC50) (pM) [2]: 74.6 pM
B11: S7AB-H8.28 (antibody, V domains shown)
VH: B1 VH with A31G, A32Y
VL: B1 VL with G25A, I29A, G90Q, T93L

- Kd [1]: 0.1 nM
- fold improvement over S7AB-H8 [1]: 10.5 fold
- koff [1]: 1.56e-05 s⁻¹
- kon [1]: 156000 M⁻¹ s⁻¹
- Fold increase in potency compared to AB-H8 [2]: 3.6 fold
- Fold increase in potency compared to Chimeric Ab [2]: 10.9 fold
- Maximal downregulation (% Siglec-7 remaining) [2]: 2.9%
- Receptor downregulation, (EC50) (pM) [2]: 93.7 pM
B12: S7AB-H8.27 (antibody, V domains shown)
VH: B1 VH with A31M, L55Y
VL: B1 VL with G25A, I29A, G90Q, T93L

- Kd [1]: 0.898 nM
- fold improvement over S7AB-H8 [1]: 1.2 fold
- koff [1]: 0.000112 s⁻¹
- kon [1]: 125000 M⁻¹ s⁻¹
- Fold increase in potency compared to AB-H8 [2]: 3.5 fold
- Fold increase in potency compared to Chimeric Ab [2]: 10.5 fold
- Maximal downregulation (% Siglec-7 remaining) [2]: 6.7%
- Receptor downregulation, (EC50) (pM) [2]: 97.8 pM
B13: S7AB-H8.19 (antibody, V domains shown)
VH: B1 VH
VL: B1 VL with I29T, G90Q

- Kd [1]: 0.397 nM
- fold improvement over S7AB-H8 [1]: 2.6 fold
- koff [1]: 5.9e-05 s⁻¹
- kon [1]: 149000 M⁻¹ s⁻¹
- Fold increase in potency compared to AB-H8 [2]: 1.9 fold
- Fold increase in potency compared to Chimeric Ab [2]: 5.7 fold
- Maximal downregulation (% Siglec-7 remaining) [2]: 9.8%
- Receptor downregulation, (EC50) (pM) [2]: 180 pM
B14: S7AB-H8.26 (antibody, V domains shown)
VH: B1 VH with A31E, A32T
VL: B1 VL with G25A, I29A, G90Q, T93L

- Kd [1]: 1.81 nM
- fold improvement over S7AB-H8 [1]: 0.6 fold
- koff [1]: 0.000145 s⁻¹
- kon [1]: 79900 M⁻¹ s⁻¹
- Fold increase in potency compared to AB-H8 [2]: 1.4 fold
- Fold increase in potency compared to Chimeric Ab [2]: 4.2 fold
- Maximal downregulation (% Siglec-7 remaining) [2]: 10.6%
- Receptor downregulation, (EC50) (pM) [2]: 245 pM
B15: S7AB-H8.20 (antibody, V domains shown)
VH: B1 VH with A31E, L55Y
VL: B1 VL with I29T, G90Q

- Kd [1]: 0.356 nM
- fold improvement over S7AB-H8 [1]: 2.9 fold
- koff [1]: 3.93e-05 s⁻¹
- kon [1]: 111000 M⁻¹ s⁻¹
- Fold increase in potency compared to AB-H8 [2]: 3.7 fold
- Fold increase in potency compared to Chimeric Ab [2]: 11.2 fold
- Maximal downregulation (% Siglec-7 remaining) [2]: 3.4%
- Receptor downregulation, (EC50) (pM) [2]: 91.3 pM
B16: S7AB-H8.32 (antibody, V domains shown)
VH: B1 VH with A31M, L55Y
VL: B1 VL with G90Q, N92G

- Kd [1]: 2.6 nM
- fold improvement over S7AB-H8 [1]: 0.4 fold
- koff [1]: 0.000607 s⁻¹
- kon [1]: 233000 M⁻¹ s⁻¹
- Maximal downregulation (% Siglec-7 remaining) [2]: 85%
- Receptor downregulation, (EC50) (pM) [2]: > 3000 pM
B17: S7AB-H8.15 (antibody, V domains shown)
VH: B1 VH with A31E, L55Y
VL: B1 VL

- Kd [1]: 0.235 nM
- fold improvement over S7AB-H8 [1]: 4.5 fold
- koff [1]: 5.53e-05 s⁻¹
- kon [1]: 235000 M⁻¹ s⁻¹
- Fold increase in potency compared to AB-H8 [2]: 3.8 fold
- Fold increase in potency compared to Chimeric Ab [2]: 11.4 fold
- Maximal downregulation (% Siglec-7 remaining) [2]: 17.2%
- Receptor downregulation, (EC50) (pM) [2]: 90.1 pM
B18: S7AB-H8.23 (antibody, V domains shown)
VH: B1 VH with A31G, A32Y
VL: B1 VL with G25A, Q27E, G90Q, N92G

- Kd [1]: 2.53 nM
- fold improvement over S7AB-H8 [1]: 0.4 fold
- koff [1]: 0.000165 s⁻¹
- kon [1]: 65400 M⁻¹ s⁻¹
- Fold increase in potency compared to AB-H8 [2]: 1 fold
- Fold increase in potency compared to Chimeric Ab [2]: 2.9 fold
- Maximal downregulation (% Siglec-7 remaining) [2]: 10.1%
- Receptor downregulation, (EC50) (pM) [2]: 348 pM
B19: S7AB-H8.16 (antibody, V domains shown)
VH: B1 VH with A31E, A32T
VL: B1 VL with I29T, G90Q

- Kd [1]: 0.712 nM
- fold improvement over S7AB-H8 [1]: 1.5 fold
- koff [1]: 0.000142 s⁻¹
- kon [1]: 199000 M⁻¹ s⁻¹
- Fold increase in potency compared to AB-H8 [2]: 5 fold
- Fold increase in potency compared to Chimeric Ab [2]: 15.2 fold
- Maximal downregulation (% Siglec-7 remaining) [2]: 18.9%
- Receptor downregulation, (EC50) (pM) [2]: 67.3 pM
B20: S7AB-H8.18 (antibody, V domains shown)
VH: B1 VH with A31G, A32Y
VL: B1 VL with I29T, G90Q
